Where no end group is shown, it is not given here.
B1: ACE2-binding peptide ABP C2 (peptide)
chain: LHFAKWNHVWSWK-NH2
modifications: also: biotinylated, position not given here
B2: ACE2-binding peptide ABP C1 (peptide)
chain: LFRGYFAAMNNLK-NH2
modifications: also: biotinylated, position not given here
B3: ACE2-binding peptide ABP C4 (peptide)
chain: LKVKYMWDYLFGK-NH2
modifications: also: biotinylated, position not given here

What follows are binders tested against human angiotensin converting enzyme 2 (ACE2), recombinant (human, UniProt Q9BYF1 18-740) (assay: BLI).
human angiotensin converting enzyme 2 (ACE2), recombinant, sequence (Q9BYF1 18-740): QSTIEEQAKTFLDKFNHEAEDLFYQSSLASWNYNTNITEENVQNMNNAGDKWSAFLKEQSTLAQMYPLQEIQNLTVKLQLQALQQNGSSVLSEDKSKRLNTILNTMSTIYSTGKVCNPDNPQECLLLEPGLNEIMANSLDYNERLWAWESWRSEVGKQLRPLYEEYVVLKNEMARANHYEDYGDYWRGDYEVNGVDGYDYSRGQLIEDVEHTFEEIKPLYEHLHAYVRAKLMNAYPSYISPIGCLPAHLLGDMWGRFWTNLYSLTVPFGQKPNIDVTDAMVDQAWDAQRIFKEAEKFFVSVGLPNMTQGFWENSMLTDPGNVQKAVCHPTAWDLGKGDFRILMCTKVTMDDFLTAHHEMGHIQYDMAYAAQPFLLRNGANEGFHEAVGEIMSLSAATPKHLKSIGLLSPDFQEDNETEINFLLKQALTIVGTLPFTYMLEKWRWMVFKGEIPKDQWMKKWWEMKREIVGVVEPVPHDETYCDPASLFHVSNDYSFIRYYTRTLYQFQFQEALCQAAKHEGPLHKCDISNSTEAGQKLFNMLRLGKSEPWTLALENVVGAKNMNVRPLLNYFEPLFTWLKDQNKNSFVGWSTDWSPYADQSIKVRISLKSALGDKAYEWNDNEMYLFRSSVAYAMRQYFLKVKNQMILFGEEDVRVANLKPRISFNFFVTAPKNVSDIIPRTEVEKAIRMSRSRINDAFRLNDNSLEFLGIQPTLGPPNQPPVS
In the case of B1, the Kd is reported as 57 nM. B2 showed a Kd of 66 nM. Binder B3 has a Kd of 58 nM.

— PMC9814530 (2022)
